Results reported in US12679878B2, “CRF2 receptor agonists and their use in therapy” (SANOFI, priority 2020, dated 2026).
Starred links: 1 amine or outer side, 2 acyl side, 3 side chain; linkers in the order of their positions; H or OH if unused. Non-standard residues stand in square brackets, D forms with d. Groups on a side chain read outwards from the residue. No end group written: not given here. *: point of attachment. C20 diacid = O=C(O)CCCCCCCCCCCCCCCCCCC(=O)*; C16 diacid = O=C(O)CCCCCCCCCCCCCCC(=O)*; γGlu = O=C(O)[C@H](CCC(=O)[*:2])N[*:1]; Palmitoyl = CCCCCCCCCCCCCCCC(=O)*; AEEA = NCCOCCOCC(=O)O; Aib = CC(C)(N)C(=O)O

Assays:
[1] = molecular target: T1, CRF1R receptor (anti-target) (UniProt P34998 24-415, limits assumed); experiment: cell-based or functional assay
T1 sequence (looked up): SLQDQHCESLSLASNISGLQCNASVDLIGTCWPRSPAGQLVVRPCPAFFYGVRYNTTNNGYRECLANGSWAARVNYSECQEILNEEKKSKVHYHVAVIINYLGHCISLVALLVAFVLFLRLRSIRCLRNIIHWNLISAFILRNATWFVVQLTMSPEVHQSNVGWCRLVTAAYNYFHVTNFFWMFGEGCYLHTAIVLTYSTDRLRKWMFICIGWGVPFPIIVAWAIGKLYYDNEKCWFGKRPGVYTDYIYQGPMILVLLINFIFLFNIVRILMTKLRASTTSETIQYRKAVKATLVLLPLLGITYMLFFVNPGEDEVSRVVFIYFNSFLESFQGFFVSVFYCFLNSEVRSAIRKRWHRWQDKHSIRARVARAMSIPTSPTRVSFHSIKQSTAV

rat CRF2R α receptor = rat CRF2R α receptor (rat, UniProt P47866 20-411); experiment: cell-based or functional assay
Chain of rat CRF2R α receptor (P47866 20-411): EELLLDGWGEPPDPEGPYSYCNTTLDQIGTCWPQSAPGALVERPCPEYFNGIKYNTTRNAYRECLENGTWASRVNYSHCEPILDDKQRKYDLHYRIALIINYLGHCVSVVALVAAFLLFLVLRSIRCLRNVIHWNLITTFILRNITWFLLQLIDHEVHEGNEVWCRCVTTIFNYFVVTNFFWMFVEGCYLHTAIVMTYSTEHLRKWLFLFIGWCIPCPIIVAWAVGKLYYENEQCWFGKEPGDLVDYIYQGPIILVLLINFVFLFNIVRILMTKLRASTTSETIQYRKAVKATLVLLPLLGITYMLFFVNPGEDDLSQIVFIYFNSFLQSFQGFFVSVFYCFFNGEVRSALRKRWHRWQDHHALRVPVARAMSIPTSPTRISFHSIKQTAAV

B1: peptide of SEQ ID NO: 223 (peptide)
peptide: IVLSLD[dV]PTKLK([γGlu-Palmitoyl])QKLLKQERQRKEREQAEKNKRILERV-NH2
modifications: N-terminus assumed
SMILES: CCCCCCCCCCCCCCCC(=O)N[C@@H](CCC(=O)NCCCC[C@H](NC(=O)[C@H](CC(C)C)NC(=O)[C@H](CCCCN)NC(=O)[C@@H](NC(=O)[C@@H]1CCCN1C(=O)[C@H](NC(=O)[C@H](CC(=O)O)NC(=O)[C@H](CC(C)C)NC(=O)[C@H](CO)NC(=O)[C@H](CC(C)C)NC(=O)[C@@H](NC(=O)[C@@H](N)[C@@H](C)CC)C(C)C)C(C)C)[C@@H](C)O)C(=O)N[C@@H](CCC(N)=O)C(=O)N[C@@H](CCCCN)C(=O)N[C@@H](CC(C)C)C(=O)N[C@@H](CC(C)C)C(=O)N[C@@H](CCCCN)C(=O)N[C@@H](CCC(N)=O)C(=O)N[C@@H](CCC(=O)O)C(=O)N[C@@H](CCCNC(=N)N)C(=O)N[C@@H](CCC(N)=O)C(=O)N[C@@H](CCCNC(=N)N)C(=O)N[C@@H](CCCCN)C(=O)N[C@@H](CCC(=O)O)C(=O)N[C@@H](CCCNC(=N)N)C(=O)N[C@@H](CCC(=O)O)C(=O)N[C@@H](CCC(N)=O)C(=O)N[C@@H](C)C(=O)N[C@@H](CCC(=O)O)C(=O)N[C@@H](CCCCN)C(=O)N[C@@H](CC(N)=O)C(=O)N[C@@H](CCCCN)C(=O)N[C@@H](CCCNC(=N)N)C(=O)N[C@H](C(=O)N[C@@H](CC(C)C)C(=O)N[C@@H](CCC(=O)O)C(=O)N[C@@H](CCCNC(=N)N)C(=O)N[C@H](C(N)=O)C(C)C)[C@@H](C)CC)C(=O)O
EC50 [nM] 0% HSA (cAMP, HTRF) [1]: 82.8 nM | Emax (%) (100% = Sauvagine at 100 nM) [1]: 57.3%

B2: peptide of SEQ ID NO: 224 (peptide)
peptide: IVLSLD[dV]PTKLK([AEEA-AEEA-γGlu-C20 diacid])KKLLKQERKR[Aib]EREKAEKAARILERV-NH2
EC50 [nM] 0% HSA (cAMP, HTRF) [1]: > 100 nM | Emax (%) (100% = Sauvagine at 100 nM) [1]: 52.6%

B3: peptide of SEQ ID NO: 197 (peptide)
peptide: IVLSLD[dV]PIKLK([γGlu-C16 diacid])QILLKQARQK[Aib]QRAQAEKNKRILERV-NH2
modifications: N-terminus assumed
SMILES: CC[C@H](C)[C@H](N)C(=O)N[C@H](C(=O)N[C@@H](CC(C)C)C(=O)N[C@@H](CO)C(=O)N[C@@H](CC(C)C)C(=O)N[C@@H](CC(=O)O)C(=O)N[C@@H](C(=O)N1CCC[C@H]1C(=O)N[C@H](C(=O)N[C@@H](CCCCN)C(=O)N[C@@H](CC(C)C)C(=O)N[C@@H](CCCCNC(=O)CC[C@H](NC(=O)CCCCCCCCCCCCCCC(=O)O)C(=O)O)C(=O)N[C@@H](CCC(N)=O)C(=O)N[C@H](C(=O)N[C@@H](CC(C)C)C(=O)N[C@@H](CC(C)C)C(=O)N[C@@H](CCCCN)C(=O)N[C@@H](CCC(N)=O)C(=O)N[C@@H](C)C(=O)N[C@@H](CCCNC(=N)N)C(=O)N[C@@H](CCC(N)=O)C(=O)N[C@@H](CCCCN)C(=O)NC(C)(C)C(=O)N[C@@H](CCC(N)=O)C(=O)N[C@@H](CCCNC(=N)N)C(=O)N[C@@H](C)C(=O)N[C@@H](CCC(N)=O)C(=O)N[C@@H](C)C(=O)N[C@@H](CCC(=O)O)C(=O)N[C@@H](CCCCN)C(=O)N[C@@H](CC(N)=O)C(=O)N[C@@H](CCCCN)C(=O)N[C@@H](CCCNC(=N)N)C(=O)N[C@H](C(=O)N[C@@H](CC(C)C)C(=O)N[C@@H](CCC(=O)O)C(=O)N[C@@H](CCCNC(=N)N)C(=O)N[C@H](C(N)=O)C(C)C)[C@@H](C)CC)[C@@H](C)CC)[C@@H](C)CC)C(C)C)C(C)C
EC50 [nM] 0% HSA (cAMP, HTRF) [1]: > 100 nM | Emax (%) (100% = Sauvagine at 100 nM) [1]: 24.4%

B4: peptide of SEQ ID NO: 225 (peptide)
peptide: IVLSLD[dV]PTKLK([γGlu-Palmitoyl])QKLLKQERQRKERE[Aib]AEKNKRILERV-NH2
EC50 [nM] 0% HSA (cAMP, HTRF) [1]: 24.2 nM | Emax (%) (100% = Sauvagine at 100 nM) [1]: 58.9%

B5: peptide of SEQ ID NO: 226 (peptide)
peptide: IVLSLD[dV]PIGLK([γGlu-Palmitoyl])QKLLKQQRQRKERQQAEKNKRILERV-NH2
modifications: N-terminus assumed
SMILES: CCCCCCCCCCCCCCCC(=O)N[C@@H](CCC(=O)NCCCC[C@H](NC(=O)[C@H](CC(C)C)NC(=O)CNC(=O)[C@@H](NC(=O)[C@@H]1CCCN1C(=O)[C@H](NC(=O)[C@H](CC(=O)O)NC(=O)[C@H](CC(C)C)NC(=O)[C@H](CO)NC(=O)[C@H](CC(C)C)NC(=O)[C@@H](NC(=O)[C@@H](N)[C@@H](C)CC)C(C)C)C(C)C)[C@@H](C)CC)C(=O)N[C@@H](CCC(N)=O)C(=O)N[C@@H](CCCCN)C(=O)N[C@@H](CC(C)C)C(=O)N[C@@H](CC(C)C)C(=O)N[C@@H](CCCCN)C(=O)N[C@@H](CCC(N)=O)C(=O)N[C@@H](CCC(N)=O)C(=O)N[C@@H](CCCNC(=N)N)C(=O)N[C@@H](CCC(N)=O)C(=O)N[C@@H](CCCNC(=N)N)C(=O)N[C@@H](CCCCN)C(=O)N[C@@H](CCC(=O)O)C(=O)N[C@@H](CCCNC(=N)N)C(=O)N[C@@H](CCC(N)=O)C(=O)N[C@@H](CCC(N)=O)C(=O)N[C@@H](C)C(=O)N[C@@H](CCC(=O)O)C(=O)N[C@@H](CCCCN)C(=O)N[C@@H](CC(N)=O)C(=O)N[C@@H](CCCCN)C(=O)N[C@@H](CCCNC(=N)N)C(=O)N[C@H](C(=O)N[C@@H](CC(C)C)C(=O)N[C@@H](CCC(=O)O)C(=O)N[C@@H](CCCNC(=N)N)C(=O)N[C@H](C(N)=O)C(C)C)[C@@H](C)CC)C(=O)O
EC50 [nM] 0% HSA (cAMP, HTRF) [1]: 96.2 nM | Emax (%) (100% = Sauvagine at 100 nM) [1]: 84%

B6: peptide of SEQ ID NO: 18 (peptide)
peptide: IVLSLD[dV]PTKLK([γGlu-Palmitoyl])QKLLKQERQRKEREQAEKNKRILERV-NH2
modifications: N-terminus assumed
SMILES: CCCCCCCCCCCCCCCC(=O)N[C@@H](CCC(=O)NCCCC[C@H](NC(=O)[C@H](CC(C)C)NC(=O)[C@H](CCCCN)NC(=O)[C@@H](NC(=O)[C@@H]1CCCN1C(=O)[C@H](NC(=O)[C@H](CC(=O)O)NC(=O)[C@H](CC(C)C)NC(=O)[C@H](CO)NC(=O)[C@H](CC(C)C)NC(=O)[C@@H](NC(=O)[C@@H](N)[C@@H](C)CC)C(C)C)C(C)C)[C@@H](C)O)C(=O)N[C@@H](CCC(N)=O)C(=O)N[C@@H](CCCCN)C(=O)N[C@@H](CC(C)C)C(=O)N[C@@H](CC(C)C)C(=O)N[C@@H](CCCCN)C(=O)N[C@@H](CCC(N)=O)C(=O)N[C@@H](CCC(=O)O)C(=O)N[C@@H](CCCNC(=N)N)C(=O)N[C@@H](CCC(N)=O)C(=O)N[C@@H](CCCNC(=N)N)C(=O)N[C@@H](CCCCN)C(=O)N[C@@H](CCC(=O)O)C(=O)N[C@@H](CCCNC(=N)N)C(=O)N[C@@H](CCC(=O)O)C(=O)N[C@@H](CCC(N)=O)C(=O)N[C@@H](C)C(=O)N[C@@H](CCC(=O)O)C(=O)N[C@@H](CCCCN)C(=O)N[C@@H](CC(N)=O)C(=O)N[C@@H](CCCCN)C(=O)N[C@@H](CCCNC(=N)N)C(=O)N[C@H](C(=O)N[C@@H](CC(C)C)C(=O)N[C@@H](CCC(=O)O)C(=O)N[C@@H](CCCNC(=N)N)C(=O)N[C@H](C(N)=O)C(C)C)[C@@H](C)CC)C(=O)O
EC50 [nM], 0% HSA (cAMP, A7R5 cells) (rat CRF2R α receptor): 0.02 nM
